Data reported in patent US20170233451A1.

Biological target: human PD-L1 on cells (IFN-gamma-induced SK-MEL-28 melanoma cells; CT26-Tg(hPD-L1)-delta(mPD-L1) cells and tumors) (human) (UniProt Q9NZQ7)
Assay: flow cytometry of a dissociated CT26 hPD-L1 positive tumor four hours after intraperitoneal injection of both labeled agents; same quadrant of the PD-L1 negative tumor: 3.97

Sequence of human PD-L1 on cells (IFN-gamma-induced SK-MEL-28 melanoma cells; CT26-Tg(hPD-L1)-delta(mPD-L1) cells and tumors) (human) (Q9NZQ7 19-290 limits assumed, stated change not applied): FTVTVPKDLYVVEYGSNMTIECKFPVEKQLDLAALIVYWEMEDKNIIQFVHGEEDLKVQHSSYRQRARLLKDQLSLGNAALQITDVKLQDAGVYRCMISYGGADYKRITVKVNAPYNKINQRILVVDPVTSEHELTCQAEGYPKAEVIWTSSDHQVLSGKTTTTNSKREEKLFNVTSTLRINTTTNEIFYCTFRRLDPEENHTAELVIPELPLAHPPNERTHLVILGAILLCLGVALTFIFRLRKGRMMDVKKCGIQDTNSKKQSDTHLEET

“AlexaFluor488-labeled anti-PD-L1 antibody (clone 29E.2A3, BioLegend)” gave a % of cells in the quadrant Anti-hPD-L1 488 positive, HAC 594 negative (lower right) of 2.22%.
